pKd: −log10 of the molar value.

Experiment [1] concerns the target R4-MHC (SIYRYYGL peptide presented by H-2K^b) (mouse | human).
Experiment [2] addresses R4-MHC ( peptide presented by H-2K^b) (mouse | human). Kind of experiment: SPR.
In experiment [3] the target is L4-MHC ( peptide presented by H-2K^b) (mouse | human). Kind of experiment: SPR. On the technique in general: In SPR one partner is held on a chip, and binding of the other changes the refractive index at the surface.
Experiment [4] concerns the target R4-MHC (SIYRYYGL peptide presented by H-2K^b) (mouse | human). This is another data set of the same source.
In experiment [5] the target is L4-MHC (SIYLYYGL peptide presented by H-2K^b) (mouse | human).
For experiment [6], the target named is R4-MHC (SIYRYYGL peptide presented by H-2K^b) (mouse | human). Kind of experiment: micropipette single-cell adhesion frequency assay; biotinylated pMHC on streptavidin-coated red blood cells against a TCR-expressing T cell; 2D effective binding affinity AcKa; whether CD8 was on the T cells is not stated.
Experiment [7] has as its target L4-MHC (SIYLYYGL peptide presented by H-2K^b) (mouse | human). Described as above.
The target in experiment [8] is R4-MHC (SIYRYYGL peptide presented by H-2K^b) (mouse | human). Kind of experiment: ultra-stable biomembrane force probe (U-BFP), force-clamp bond lifetimes; as a3, but the T cell expresses wild-type CD8αβ beside the TCR (TCR–pMHC–CD8 tri-molecular interaction).
In experiment [9] the target is L4-MHC (SIYLYYGL peptide presented by H-2K^b) (mouse | human). Described as above.
Experiment [10] addresses R4-MHC (SIYRYYGL peptide presented by H-2K^b) (mouse | human). Kind of experiment: ultra-stable biomembrane force probe (U-BFP), force-clamp bond lifetimes; biotinylated pMHC on a streptavidin bead on a red blood cell probe against a TCR-expressing T cell without CD8; adhesion frequency below 20%; DMEM with 0.5% BSA.
The target of experiment [11] is L4-MHC (SIYLYYGL peptide presented by H-2K^b) (mouse | human). The experiment is described as above.
The target is the same in experiment [12]. Kind of experiment: micropipette single-cell adhesion frequency assay; TCR on a hybridoma T cell held by a micropipette, brought into contact with a streptavidin-coated biotinylated human RBC carrying biotinylated pMHC; bi-molecular TCR-pMHC (CD8-); zero force; 2D effective constants from the fit of adhesion frequency against contact time.
Experiment [13] concerns the target R4-MHC (SIYRYYGL peptide presented by H-2K^b) (mouse | human). Kind of experiment: ultra-stable biomembrane force probe (U-BFP), force-clamp bond lifetimes; as a3, but the 2C hybridoma cell expresses CD8 with CD8β-Ile2Ala at a level matched to WT CD8.

In the case of “mouse CD8αβ, wild type (from UniProt P01731 28-247; P10300 22-213) (receptor)”, the TCR specificity of 2C hybridoma cells (ratio of IL-2 sensitivities for R4 over L4) with WT CD8 in experiment [1] stood at 65500.
The term pKd denotes the Kd on a negative log10 scale, so that one unit is a factor of ten. High values mean a low Kd, low ones a high Kd. Consider m33-TCR, soluble ectodomains, for which the pKd in [2] was 6.73; in experiment [3], 6.25.
By koff is commonly meant the first-order rate constant of dissociation. Read a high koff as fast dissociation. m33-TCR: the R4 peptide concentration (on RMA-S cells) at which m33 hybridoma T cells release IL-2, without CD8 in [4] was 100 pM. Further, in [5], the L4 peptide concentration (on RMA-S cells) at which m33 hybridoma T cells release IL-2, with CD8 came to 1 nM. In experiment [6], the 2D effective binding affinity (AcKa) is 0.0013 μm^4. The 2D effective binding affinity (AcKa) in experiment [7] was found to be 0.00089 μm^4. Further, in [8], the CD8 enhancement power (bond lifetime with CD8 over without CD8), medium force regime is 3.4 fold; the bond lifetime ratio R4-MHC over L4-MHC, medium force regime (9–12 pN), with CD8 was 1.19 fold; the peak bond lifetime, with CD8 stood at 5.2 s. Also, in experiment [9], the CD8 enhancement power (bond lifetime with CD8 over without CD8), medium force regime was found to be 5.7 fold and the peak bond lifetime, with CD8 was found to be 3.99 s. For the same substance, in experiment [10], the bond lifetime ratio R4-MHC over L4-MHC, high force regime (16–19 pN), without CD8 turned out to be 7.55 fold; the bond lifetime ratio R4-MHC over L4-MHC, low force regime (2–5 pN), without CD8 is 1.13 fold; the bond lifetime ratio R4-MHC over L4-MHC, medium force regime (9–12 pN), without CD8 was 1.99 fold; the peak bond lifetime (at ~12.85 pN), without CD8 amounted to 3.43 s. The substance further yielded a peak bond lifetime (at ~9.62 pN), without CD8 in experiment [11] of 1.82 s. The same substance registered a koff in experiment [12] of 4.22 s⁻¹.
Regarding 2C-TCR, soluble ectodomains, the pKd is 4.69 in experiment [2] and 4.42 in experiment [3].
As to “mouse CD8αβ with CD8β-Ile2Ala (from UniProt P01731 28-247; P10300 22-213) (receptor)”, the TCR specificity of 2C hybridoma cells (ratio of IL-2 sensitivities for R4 over L4) with CD8β-Ile2Ala in [1] was 7070.
With m67-TCR, soluble ectodomains, the negative logarithm of the Kd (pKd) in [2] is 7.58; in [3], 7.02.
Substance m67-TCR returned an R4 peptide concentration (on RMA-S cells) at which m67 hybridoma T cells release IL-2, without CD8 in experiment [4] of 10 nM. Moreover, in experiment [5], the L4 peptide concentration (on RMA-S cells) at which m67 hybridoma T cells release IL-2, with CD8 turned out to be 100 pM. In addition, the 2D effective binding affinity (AcKa) in experiment [6] stood at 0.0016 μm^4. In addition, the 2D effective binding affinity (AcKa) in experiment [7] worked out at 0.00099 μm^4. Besides, in experiment [8], the bond lifetime ratio R4-MHC over L4-MHC, medium force regime (9–12 pN), with CD8 came out at 0.96 fold and the peak bond lifetime, with CD8 turned out to be 5.95 s. Besides, in experiment [9], the CD8 enhancement power (bond lifetime with CD8 over without CD8), medium force regime is 4.36 fold and the peak bond lifetime, with CD8 is 5.09 s. For the same substance, in experiment [10], the bond lifetime ratio R4-MHC over L4-MHC, high force regime (16–19 pN), without CD8 stood at 2.63 fold; the bond lifetime ratio R4-MHC over L4-MHC, low force regime (2–5 pN), without CD8 turned out to be 0.34 fold; the bond lifetime ratio R4-MHC over L4-MHC, medium force regime (9–12 pN), without CD8 worked out at 3.77 fold; the peak bond lifetime, without CD8 came to 5.94 s. Further, the peak bond lifetime, without CD8 in experiment [11] was 2.56 s. The substance also gave a koff in experiment [12] of 4.92 s⁻¹.
2C-TCR had an IL-2 production of 2C hybridoma T cells stimulated by RMA-S cells pulsed with R4 peptide, with CD8 against without CD8 in experiment [4] greater than 100 fold. For the same substance, in experiment [13], the bond lifetime ratio R4-MHC over L4-MHC, medium force regime, with CD8β-Ile2Ala was found to be 4.81; the fold reduction of CD8 enhancement power (CD8β-Ile2Ala against WT CD8) was 2 times; the peak bond lifetime, with CD8β-Ile2Ala is 0.54 s. For the same substance, the 2D effective binding affinity (AcKa) in experiment [6] was determined as 0.0016 μm^4. Also, in experiment [7], the 2D effective binding affinity (AcKa) is 3.7e-05 μm^4. Besides, in [8], the CD8 enhancement power (bond lifetime with CD8 over without CD8), medium force regime was determined as 3.04 fold; the bond lifetime ratio R4-MHC over L4-MHC, medium force regime (9–12 pN), with CD8 is 10 fold; the peak bond lifetime, with CD8 came to 0.8 s. In [10], the bond lifetime ratio R4-MHC over L4-MHC, high force regime (16–19 pN), without CD8 came out at 5.1 fold; the bond lifetime ratio R4-MHC over L4-MHC, low force regime (2–5 pN), without CD8 was found to be 1.3 fold; the bond lifetime ratio R4-MHC over L4-MHC, medium force regime (9–12 pN), without CD8 worked out at 3.38 fold; the peak bond lifetime (at ~8.32 pN), without CD8 stood at 0.3 s. The koff in experiment [12] came out at 6.61 s⁻¹.
